Laboratory results reported in publication PMC12622518 (Advanced Science, 2025).

Legend:
CsiR = molecular target: T1, CsiR (Pseudomonas putida, UniProt Q88IU1); experiment: fluorescence-based thermal shift (SYPRO Orange); type: binding; settings: 100 µM ligand; 20 mM sodium phosphate, 150 mM NaCl, pH 7.4
T1 construct: full-length, His6-tagged, purified from E. coli BL21(DE3) (pETDuet-CsiR); dimer
T1 sequence (Q88IU1 1-231): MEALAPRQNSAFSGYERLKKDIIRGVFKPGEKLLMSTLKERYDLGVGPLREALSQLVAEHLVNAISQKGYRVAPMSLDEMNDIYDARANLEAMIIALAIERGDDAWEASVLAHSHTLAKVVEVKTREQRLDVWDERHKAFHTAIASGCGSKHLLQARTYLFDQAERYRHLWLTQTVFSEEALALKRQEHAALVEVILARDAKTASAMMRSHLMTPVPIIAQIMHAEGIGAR

YnfM = molecular target: T2, YnfM (Escherichia coli, UniProt P43531); experiment: efflux in knockout versus parent E. coli, intra- and extracellular Glusor fluorescence; type: cell-based; settings: carbon starvation, 30 °C
T2 construct: native MFS exporter in living E. coli BL21(DE3) cells; ynfM knockout comparison with Glusor read-out
T2 sequence (P43531 1-417): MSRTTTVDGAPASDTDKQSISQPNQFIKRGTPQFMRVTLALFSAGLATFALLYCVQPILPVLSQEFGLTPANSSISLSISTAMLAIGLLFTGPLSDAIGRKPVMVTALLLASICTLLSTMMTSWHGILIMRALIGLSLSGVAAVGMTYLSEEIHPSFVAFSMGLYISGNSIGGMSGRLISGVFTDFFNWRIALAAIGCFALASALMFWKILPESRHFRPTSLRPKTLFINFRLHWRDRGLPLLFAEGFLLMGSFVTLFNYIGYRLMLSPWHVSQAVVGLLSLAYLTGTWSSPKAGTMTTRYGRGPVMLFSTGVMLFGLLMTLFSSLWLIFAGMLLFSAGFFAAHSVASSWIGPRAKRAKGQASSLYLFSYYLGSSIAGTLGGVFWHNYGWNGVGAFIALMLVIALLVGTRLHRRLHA

[1] = molecular target: ligand-binding domain of CsiR (CsiR-LBD) (P. putida KT2440); experiment: SEC; gel filtration on Superdex 200 10/300 GL, 50 mM sodium phosphate buffer pH 7.2, 150 mM NaCl; mass standards aprotinin, ovalbumin, conalbumin, aldolase, ferritin
[2] = molecular target: the molecule itself; experiment: as above

With O=C(O)CCCC(=O)O [glutarate] the ΔTm (CsiR) was “only glutarate induced a significant increase in the melting temperature (Tm) of CsiR” and the “efflux in knockout versus parent E. coli, intra- and extracellular Glusor fluore” value (YnfM) was “YnfM may be the only functional glutarate exporter in E. coli BL21(DE3)”.

“ligand-binding domain of CsiR (CsiR-LBD) (domain or fragment)” was tested, and the stoichiometry N [1] was 2.

B1: genetically encoded glutarate fluorescent biosensor Glusor (other)
chain: LDEMNDIYDARANLEAMIIALAIERGDDAWEASVLAHSHTLAKVVEVKTREQRLDVWDERHKAFHTAIASGCGSKHLLQARTYLFDQAERYRHLWLTQTVFSEEALALKRQEHAALVEVILARDAKTASAMMRSHLMTPVPIIAQIMHAEGIGAR
For B1, the “stoichiometry N” value [2] was 2.

B2: GntR family transcriptional regulator CsiR (natural protein, P. putida KT2440, UniProt Q88IU1 1-231, looked up)
chain: MEALAPRQNSAFSGYERLKKDIIRGVFKPGEKLLMSTLKERYDLGVGPLREALSQLVAEHLVNAISQKGYRVAPMSLDEMNDIYDARANLEAMIIALAIERGDDAWEASVLAHSHTLAKVVEVKTREQRLDVWDERHKAFHTAIASGCGSKHLLQARTYLFDQAERYRHLWLTQTVFSEEALALKRQEHAALVEVILARDAKTASAMMRSHLMTPVPIIAQIMHAEGIGAR
notes: CsiR, GntR family transcriptional regulator of the csiD-lhgO operon, Pseudomonas putida KT2440; csiR gene cloned into pETDuet-1 (pETDuet-CsiR); also called His6-tagged CsiR
With B2 the “stoichiometry N” value [2] was 2.
